The target of this data set is cytochrome c (UniProt P62894). To be noted: Cy3 fluorescence quenching, hyperbolic fit; cytochrome c source for this assay not stated.

As usually defined, the Kd is the concentration at which binding is half-saturated. Low readings indicate tighter binding, high ones weaker binding.

Sequence of cytochrome c (P62894 2-105): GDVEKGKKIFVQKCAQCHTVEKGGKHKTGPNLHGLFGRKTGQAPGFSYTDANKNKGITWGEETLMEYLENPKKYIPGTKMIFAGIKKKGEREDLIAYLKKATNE

The substance tRNACys 5'-Cy3 registered a Kd of 3.5 µM.

The values are drawn from patent US20120252718.
